Results taken from patent US20230382991A1.
Several values for one entry are separate records, joined by “and”; a condition that tells them apart may be missing. Equal entries are not always repeated.

Tests used:
[1] = target: cynomolgus macaque LILRB1.2 expressed on stably transduced HEK293T cells (cynomolgus macaque)
[2] = target: cynomolgus macaque LILRB2.1 expressed on stably transduced HEK293T cells (cynomolgus macaque)
[3] = target: cynomolgus macaque LILRB4 expressed on stably transduced HEK293T cells (cynomolgus macaque)

cynomolgus macaque Mafa-A1*063 SIV gag GW9 (…)-APC tetramer (peptide-MHC)
% cells in the tetramer+ gate [1]: 51.7% and 53% | % cells in the tetramer+ gate [2]: 73.5% and 71% | % cells in the tetramer+ gate [3]: 0.13%
